Paper PMC9482650, “Quantitative fragmentomics allow affinity mapping of interactomes” (Nature Communications, 2022)

T1: DFNB31_2, Q9P202
T1 sequence (Q9P202 274-371, limits assumed, looked up): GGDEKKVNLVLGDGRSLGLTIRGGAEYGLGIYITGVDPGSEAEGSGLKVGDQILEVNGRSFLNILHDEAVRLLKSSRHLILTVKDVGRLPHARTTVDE

T2: GRIP1_2, Q9Y3R0
T2 sequence (Q9Y3R0 145-248, limits assumed, looked up): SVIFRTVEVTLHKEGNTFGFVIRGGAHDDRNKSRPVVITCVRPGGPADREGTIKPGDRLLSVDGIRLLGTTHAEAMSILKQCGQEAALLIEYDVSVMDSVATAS

T3: GRIP1_7, Q9Y3R0
T3 sequence (Q9Y3R0 999-1096, limits assumed, looked up): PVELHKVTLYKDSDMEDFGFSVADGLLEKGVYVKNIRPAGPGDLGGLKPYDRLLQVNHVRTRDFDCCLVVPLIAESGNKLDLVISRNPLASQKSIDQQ

T4: LRRC7, Q96NW7
T4 sequence (Q96NW7 1440-1537, limits assumed, looked up): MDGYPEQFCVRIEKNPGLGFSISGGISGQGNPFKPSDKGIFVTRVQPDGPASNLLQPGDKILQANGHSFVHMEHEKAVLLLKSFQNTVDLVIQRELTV

T5: MPDZ_10, O75970
T5 sequence (O75970 1624-1722, limits assumed, looked up): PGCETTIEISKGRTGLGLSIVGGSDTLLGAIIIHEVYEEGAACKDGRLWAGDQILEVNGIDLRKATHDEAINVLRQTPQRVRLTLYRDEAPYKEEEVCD

T6: MPDZ_5, O75970
T6 sequence (O75970 695-796, limits assumed, looked up): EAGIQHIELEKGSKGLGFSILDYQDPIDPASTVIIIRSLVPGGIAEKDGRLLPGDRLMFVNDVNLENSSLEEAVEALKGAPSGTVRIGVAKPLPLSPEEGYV

T7: MPP6, Q9NZW5
T7 sequence (Q9NZW5 125-219, limits assumed, looked up): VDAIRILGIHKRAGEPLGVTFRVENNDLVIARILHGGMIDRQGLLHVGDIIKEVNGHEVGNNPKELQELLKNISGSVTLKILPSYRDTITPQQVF

T8: MPP7, Q5T2T1
T8 sequence (Q5T2T1 134-230, limits assumed, looked up): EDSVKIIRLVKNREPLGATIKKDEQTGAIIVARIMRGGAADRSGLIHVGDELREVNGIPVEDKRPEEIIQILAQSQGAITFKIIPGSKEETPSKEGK

T9: RADIL, Q96JH8
T9 sequence (Q96JH8 971-1071, limits assumed, looked up): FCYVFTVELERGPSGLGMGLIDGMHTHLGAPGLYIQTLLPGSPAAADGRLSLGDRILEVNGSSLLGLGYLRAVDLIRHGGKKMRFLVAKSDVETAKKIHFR

T10: RAPGEF6, Q8TEU7
T10 sequence (Q8TEU7 525-625, limits assumed, looked up): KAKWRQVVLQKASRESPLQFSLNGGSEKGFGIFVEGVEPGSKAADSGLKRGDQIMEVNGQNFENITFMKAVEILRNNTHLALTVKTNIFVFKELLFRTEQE

B1: FAM167B, Q9BTA0 (peptide)
chain: NISARRFTLC
B2: GAS2L2, Q8NHY3 (peptide)
chain: PLPPEEESWV

Target: CASK, O14936
Sequence (O14936 487-570): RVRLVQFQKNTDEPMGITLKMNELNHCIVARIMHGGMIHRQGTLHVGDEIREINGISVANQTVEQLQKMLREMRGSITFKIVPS
Test: holdup assay
Design: key: below the threshold = too weak to quantify, mostly under pKd 3.1 to 4
Settings: plain residues with an end cap or a label only (N-terminal biotin on a linker: ado-ado)

Row | Binder | pKd
1 | B1 | below the threshold
2 | B2 | below the threshold

Target: T1, DFNB31_2, Q9P202
Test: holdup assay
Design: key: below the threshold = too weak to quantify, mostly under pKd 3.1 to 4
Settings: plain residues with an end cap or a label only (N-terminal biotin on a linker: ado-ado)

Row | Binder | pKd
3 | B1 | below the threshold
4 | B2 | below the threshold

Target: DLG4_3, P78352
Sequence (P78352 306-403): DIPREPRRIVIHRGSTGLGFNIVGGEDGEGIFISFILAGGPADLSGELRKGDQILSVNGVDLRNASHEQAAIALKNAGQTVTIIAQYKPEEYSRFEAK
Test: holdup assay
Design: key: below the threshold = too weak to quantify, mostly under pKd 3.1 to 4
Settings: plain residues with an end cap or a label only (N-terminal biotin on a linker: ado-ado)

Row | Binder | pKd
5 | B1 | 4.38
6 | B2 | below the threshold

Target: FRMPD2_3, Q68DX3
Sequence (Q68DX3 1073-1166): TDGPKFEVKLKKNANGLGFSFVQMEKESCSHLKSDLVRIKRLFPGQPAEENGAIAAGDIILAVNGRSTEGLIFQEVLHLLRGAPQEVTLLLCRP
Test: holdup assay
Design: key: below the threshold = too weak to quantify, mostly under pKd 3.1 to 4
Settings: plain residues with an end cap or a label only (N-terminal biotin on a linker: ado-ado)

Row | Binder | pKd
7 | B1 | below the threshold
8 | B2 | 4.04

Target: FRMPD4, Q14CM0
Sequence (Q14CM0 67-160): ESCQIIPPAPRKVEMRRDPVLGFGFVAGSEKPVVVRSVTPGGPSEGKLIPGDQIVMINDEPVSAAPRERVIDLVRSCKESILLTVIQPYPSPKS
Test: holdup assay
Design: key: below the threshold = too weak to quantify, mostly under pKd 3.1 to 4
Settings: plain residues with an end cap or a label only (N-terminal biotin on a linker: ado-ado)

Row | Binder | pKd
9 | B1 | below the threshold
10 | B2 | 3.55

Target: GIPC2, Q8TF65
Sequence (Q8TF65 112-203): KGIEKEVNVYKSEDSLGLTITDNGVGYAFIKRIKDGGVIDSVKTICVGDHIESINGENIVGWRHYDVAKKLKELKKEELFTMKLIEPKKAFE
Test: holdup assay
Design: key: below the threshold = too weak to quantify, mostly under pKd 3.1 to 4
Settings: plain residues with an end cap or a label only (N-terminal biotin on a linker: ado-ado)

Row | Binder | pKd
11 | B1 | below the threshold
12 | B2 | 4.2

Target: T2, GRIP1_2, Q9Y3R0
Test: holdup assay
Design: key: below the threshold = too weak to quantify, mostly under pKd 3.1 to 4
Settings: plain residues with an end cap or a label only (N-terminal biotin on a linker: ado-ado)

Row | Binder | pKd
13 | B1 | below the threshold
14 | B2 | 3.8

Target: T3, GRIP1_7, Q9Y3R0
Test: holdup assay
Design: key: below the threshold = too weak to quantify, mostly under pKd 3.1 to 4
Settings: plain residues with an end cap or a label only (N-terminal biotin on a linker: ado-ado)

Row | Binder | pKd
15 | B1 | below the threshold
16 | B2 | 4.46

Target: GRIP2_6, Q9C0E4
Sequence (Q9C0E4 648-740): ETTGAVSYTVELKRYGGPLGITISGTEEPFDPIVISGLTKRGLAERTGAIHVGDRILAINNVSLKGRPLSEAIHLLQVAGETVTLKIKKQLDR
Test: holdup assay
Design: key: below the threshold = too weak to quantify, mostly under pKd 3.1 to 4
Settings: plain residues with an end cap or a label only (N-terminal biotin on a linker: ado-ado)

Row | Binder | pKd
17 | B1 | 3.57
18 | B2 | below the threshold

Target: HTRA2, O43464
Sequence (O43464 355-458): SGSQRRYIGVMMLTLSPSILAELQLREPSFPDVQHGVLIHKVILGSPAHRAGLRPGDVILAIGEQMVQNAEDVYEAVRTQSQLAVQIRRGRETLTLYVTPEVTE
Test: holdup assay
Design: key: below the threshold = too weak to quantify, mostly under pKd 3.1 to 4
Settings: plain residues with an end cap or a label only (N-terminal biotin on a linker: ado-ado)

Row | Binder | pKd
19 | B1 | 4.44
20 | B2 | 3.96

Target: IL16_1, Q14005
Sequence (Q14005 210-306): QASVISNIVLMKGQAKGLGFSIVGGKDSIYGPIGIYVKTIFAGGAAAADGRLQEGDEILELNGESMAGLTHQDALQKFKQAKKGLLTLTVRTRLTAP
Test: holdup assay
Design: key: below the threshold = too weak to quantify, mostly under pKd 3.1 to 4
Settings: plain residues with an end cap or a label only (N-terminal biotin on a linker: ado-ado)

Row | Binder | pKd
21 | B1 | below the threshold
22 | B2 | 5.24

Target: Inadl_2, Q8NI35
Sequence (Q8NI35 238-335): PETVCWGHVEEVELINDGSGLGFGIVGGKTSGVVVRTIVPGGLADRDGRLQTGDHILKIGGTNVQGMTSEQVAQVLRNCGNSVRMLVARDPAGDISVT
Test: holdup assay
Design: key: below the threshold = too weak to quantify, mostly under pKd 3.1 to 4
Settings: plain residues with an end cap or a label only (N-terminal biotin on a linker: ado-ado)

Row | Binder | pKd
23 | B1 | below the threshold
24 | B2 | 4.17

Target: Inadl_4, Q8NI35
Sequence (Q8NI35 547-651): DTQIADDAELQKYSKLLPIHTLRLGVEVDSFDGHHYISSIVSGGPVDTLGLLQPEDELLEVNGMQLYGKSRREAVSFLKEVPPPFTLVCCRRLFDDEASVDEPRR
Test: holdup assay
Design: key: below the threshold = too weak to quantify, mostly under pKd 3.1 to 4
Settings: plain residues with an end cap or a label only (N-terminal biotin on a linker: ado-ado)

Row | Binder | pKd
25 | B1 | below the threshold
26 | B2 | below the threshold

Target: LDB3, O75112
Sequence (O75112 1-94): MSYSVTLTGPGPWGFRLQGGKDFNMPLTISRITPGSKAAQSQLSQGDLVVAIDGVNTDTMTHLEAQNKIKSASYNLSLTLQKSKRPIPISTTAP
Test: holdup assay
Design: key: below the threshold = too weak to quantify, mostly under pKd 3.1 to 4
Settings: plain residues with an end cap or a label only (N-terminal biotin on a linker: ado-ado)

Row | Binder | pKd
27 | B1 | below the threshold
28 | B2 | below the threshold

Target: T4, LRRC7, Q96NW7
Test: holdup assay
Design: key: below the threshold = too weak to quantify, mostly under pKd 3.1 to 4
Settings: plain residues with an end cap or a label only (N-terminal biotin on a linker: ado-ado)

Row | Binder | pKd
29 | B1 | below the threshold
30 | B2 | 4.96

Target: MAGI2_3, Q86UL8
Sequence (Q86UL8 600-682): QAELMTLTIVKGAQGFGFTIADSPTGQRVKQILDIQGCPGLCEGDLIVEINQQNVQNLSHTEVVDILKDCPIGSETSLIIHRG
Test: holdup assay
Design: key: below the threshold = too weak to quantify, mostly under pKd 3.1 to 4
Settings: plain residues with an end cap or a label only (N-terminal biotin on a linker: ado-ado)

Row | Binder | pKd
31 | B1 | 3.81
32 | B2 | 4.13

Target: MAGI2_5, Q86UL8
Sequence (Q86UL8 915-1017): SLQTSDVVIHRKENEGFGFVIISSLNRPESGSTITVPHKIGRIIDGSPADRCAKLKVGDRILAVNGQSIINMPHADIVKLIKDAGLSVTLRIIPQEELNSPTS
Test: holdup assay
Design: key: below the threshold = too weak to quantify, mostly under pKd 3.1 to 4
Settings: plain residues with an end cap or a label only (N-terminal biotin on a linker: ado-ado)

Row | Binder | pKd
33 | B1 | 4.26
34 | B2 | 4.92

Target: MAGI3_2, Q5TCQ9
Sequence (Q5TCQ9 398-503): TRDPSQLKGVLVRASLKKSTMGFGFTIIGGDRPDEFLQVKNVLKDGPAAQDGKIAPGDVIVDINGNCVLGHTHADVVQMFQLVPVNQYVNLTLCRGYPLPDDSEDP
Test: holdup assay
Design: key: below the threshold = too weak to quantify, mostly under pKd 3.1 to 4
Settings: plain residues with an end cap or a label only (N-terminal biotin on a linker: ado-ado)

Row | Binder | pKd
35 | B1 | 4.67
36 | B2 | 4.38

Target: MAST1, Q9Y2H9
Sequence (Q9Y2H9 962-1065): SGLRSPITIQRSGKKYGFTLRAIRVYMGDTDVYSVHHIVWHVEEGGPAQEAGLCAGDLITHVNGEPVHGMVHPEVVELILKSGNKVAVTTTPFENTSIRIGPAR
Test: holdup assay
Design: key: below the threshold = too weak to quantify, mostly under pKd 3.1 to 4
Settings: plain residues with an end cap or a label only (N-terminal biotin on a linker: ado-ado)

Row | Binder | pKd
37 | B1 | below the threshold
38 | B2 | below the threshold

Target: T5, MPDZ_10, O75970
Test: holdup assay
Design: key: below the threshold = too weak to quantify, mostly under pKd 3.1 to 4
Settings: plain residues with an end cap or a label only (N-terminal biotin on a linker: ado-ado)

Row | Binder | pKd
39 | B1 | below the threshold
40 | B2 | below the threshold

Target: T6, MPDZ_5, O75970
Test: holdup assay
Design: key: below the threshold = too weak to quantify, mostly under pKd 3.1 to 4
Settings: plain residues with an end cap or a label only (N-terminal biotin on a linker: ado-ado)

Row | Binder | pKd
41 | B1 | below the threshold
42 | B2 | 3.79

Target: T7, MPP6, Q9NZW5
Test: holdup assay
Design: key: below the threshold = too weak to quantify, mostly under pKd 3.1 to 4
Settings: plain residues with an end cap or a label only (N-terminal biotin on a linker: ado-ado)

Row | Binder | pKd
43 | B1 | below the threshold
44 | B2 | below the threshold

Target: T8, MPP7, Q5T2T1
Test: holdup assay
Design: key: below the threshold = too weak to quantify, mostly under pKd 3.1 to 4
Settings: plain residues with an end cap or a label only (N-terminal biotin on a linker: ado-ado)

Row | Binder | pKd
45 | B1 | below the threshold
46 | B2 | 3.57

Target: NHERF4_1, Q86UT5-2
Sequence (Q86UT5 other isoform, or with tags, fused parts or gaps): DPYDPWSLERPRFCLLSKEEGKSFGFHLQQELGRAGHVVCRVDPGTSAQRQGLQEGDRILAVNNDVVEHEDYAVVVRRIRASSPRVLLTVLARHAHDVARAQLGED
Test: holdup assay
Design: key: below the threshold = too weak to quantify, mostly under pKd 3.1 to 4
Settings: plain residues with an end cap or a label only (N-terminal biotin on a linker: ado-ado)

Row | Binder | pKd
47 | B1 | 4.27
48 | B2 | below the threshold

Target: PDZRN4_1, Q6ZMN7
Sequence (Q6ZMN7 213-318): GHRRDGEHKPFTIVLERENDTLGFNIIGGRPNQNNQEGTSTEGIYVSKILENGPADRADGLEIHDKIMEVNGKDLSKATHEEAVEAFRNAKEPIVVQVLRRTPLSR
Test: holdup assay
Design: key: below the threshold = too weak to quantify, mostly under pKd 3.1 to 4
Settings: plain residues with an end cap or a label only (N-terminal biotin on a linker: ado-ado)

Row | Binder | pKd
49 | B1 | below the threshold
50 | B2 | 4.13

Target: PTPN3, P26045
Sequence (P26045 505-587): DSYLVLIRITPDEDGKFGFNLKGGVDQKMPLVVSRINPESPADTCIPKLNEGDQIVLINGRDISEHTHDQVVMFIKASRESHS
Test: holdup assay
Design: key: below the threshold = too weak to quantify, mostly under pKd 3.1 to 4
Settings: plain residues with an end cap or a label only (N-terminal biotin on a linker: ado-ado)

Row | Binder | pKd
51 | B1 | 3.61
52 | B2 | 4.75

Target: T9, RADIL, Q96JH8
Test: holdup assay
Design: key: below the threshold = too weak to quantify, mostly under pKd 3.1 to 4
Settings: plain residues with an end cap or a label only (N-terminal biotin on a linker: ado-ado)

Row | Binder | pKd
53 | B1 | 4.62
54 | B2 | 4.55

Target: T10, RAPGEF6, Q8TEU7
Test: holdup assay
Design: key: below the threshold = too weak to quantify, mostly under pKd 3.1 to 4
Settings: plain residues with an end cap or a label only (N-terminal biotin on a linker: ado-ado)

Row | Binder | pKd
55 | B1 | below the threshold
56 | B2 | 3.6
